Measured values reported in the DeepSol protein solubility set.

Assay: soluble on expression in E. coli; label from the status in PepcDB or PDB records

Sequence	soluble on expression in E. coli
MGHHHHHHGGHMSLITAEECRTYKEFVDLYQSYLYPLLGARLSRMYSPKNKVIIDMGTGPGYLSIQLAKRTNAHVHAVDINPAMHEIAQEEAKKSGVSSLISFDLEDVHHLSYADQYADFIVSYSCLHHWEDVVKGLKECYRVLAPGGKIVILDTFNPQGSHLEIMRKQIKEPEYFRFVREAFEESYSFEDIHQFVQDAGIPNYSLETFHFLPEDFIESLDELEDAPLWEQNDQSTDHEIESVTWMLTIEKEKEGALEGGS	soluble
MGHHHHHHGGHMSLSAYKTVVVGTDGSDSSMRAVDRAAQIAGADAKLIIASAYLPQHEDARAADILKDESYKVTGTAPIYEILHDAKERAHNAGAKNVEERPIVGAPVDALVNLADEEKADLLVVGNVGLSTIAGRLLGSVPANVSRRAKVDVLIVHTTEGGS	soluble
MGHHHHHHHHHHSSGHIEGRHMGKNVLLLGSGFVAQPVIDTLAANDDINVTVACRTLANAQALAKPSGSKAISLDVTDDSALDKVLADNDVVISLIPYTFHPNVVKSAIRTKTDVVTSSYISPALRELEPEIVKAGITVMNEIGLDPGIDHLYAVKTIDEVHRAGGKLKSFLSYCGGLPAPEDSDNPLGYKFSWSSRGVLLALRNSAKYWKDGKIETVSSEDLMATAKPYFIYPGYAFVCYPNRDSTLFKDLYHIPEAETVIRGTLRYQGFPEFVKALVDMGMLKDDANEIFSKPIAWNEALKQYLGAKSTSKEDLIASIDSKATWKDDEDRERILSGFAWLGLFSDAKITPRGNALDTLCARLEELMQYEDNERDMVVLQHKFGIEWADGTTETRTSTLVDYGKVGGYSSMAATVGYPVAIATKFVLDGTIKGPGLLAPYSPEINDPIMKELKDKYGIYLKEKTVA	soluble
MGHHHHHHHHHHSSGHIEGRHMYTVMLDLKGRSVLVVGGGTIATRRIKGFLQEGAAITVVAPTVSAEINEWEAKGQLRVKRKKVGEEDLLNVFFIVVATNDQAVNKFVKQHIKNDQLVNMASSFSDGNIQIPAQFSRGRLSLAISTDGASPLLTKRIKEDLSSNYDESYTQYTQFLYECRVLIHRLNVSKSRKHELLTEIIDDQYRLSLVKQREFLQQIEKYK	soluble
MGHHHHHHKVTLPDLKWDFGALEPYISGQINELHYTKHHQTYVNGFNTAVDQFQELSDLLAKEPSPANARKMIAIQQNIKFHGGGFTNHCLFWENLAPESQGGGEPPTGALAKAIDEQFGSLDELIKLTNTKLAGVQGSGWAFIVKNLSNGGKLDVVQTYNQDTVTGPLVPLVAIDAWEHAYYLQYQNKKADYFKAIWNVVNWKEASRRFDAGKI	soluble
MGHHHHHHSHAADEEKAARGIAADRLIIGHVARFHEVKNHAFLLKLAAHLKERGIRFQLVLAGDGPLCGEIEEEARQQNLLSDVLFLGTEERIHELMRTFDVFVMPSLYEGLPVVLVEAQASGLPCIISDSITEKVDAGLGLVTRLSLSEPISVWAETIARAAAAGRPKREFIKETLAQ	soluble
MGHHHHHHSHAKGKSAGLVKATGRNMEQFQVSVSVAPNAKITFELVYEELLKRRLGVYELLLKVRPQQLVKHLQMDIHIFEPQGISFLETESTFMTNQLVDALTTWQNKTKAHIRFKPTLSQQQKSPEQQETVLDGNLIIRYDVDRAISGGSIQIENGYFVHYFAPEGLTTMPKNVVFVIDKSGSMSGRKIQQTREALIKILDDLSPRDQFNLIVFSTEATQWRPSLVPASAENVNKARSFAAGIQALGGTNINDAMLMAVQLLDSSNQEERLPEGSVSLIILLTDGDPTVGETNPR	not soluble
MGHHHHHHSHALKRLEVEVELFNQPSEELENFDFIVSVGGDGTILRILQKLKRCPPIFGINTGRVGLLTHASPENFEVELKKAVEKFEVERFPRVSCSAMPDVLALNEIAVLSRKPAKMIDVALRVDGVEVDRIRCDGFIVATQIGSTGYAFSAGGPVVEPYLECFILIPIAPFRFGWKPYVVSMERKIEVIAEKAIVVADGQKSVDFDGEITIEKSEFPAVFFKNEKRFRNL	not soluble
MGHHHHHHSHEELGLKVGLEIHRQLDTKKLFSPVPTKFSDEVDFTFQRRLRPTMSELGEVDPAALEEFKKGRVFIYEGNYQLTDLVYMDEEPPRGPDKEALEVALQIAYLLNAKPVDEVYYMRKIVIDGSNVSGFQRTAIIATDGKVETPWGTVGIPTICLEEDAARIIERKEKEVIYRLDRLGVPLVEISTTPDIHHPEQAKVVAKFIGDALRATRKVKRGLGTIRQDLNVSIKGGARIEIKGVQELDMIPLIIEREVERQLNLLKIR	not soluble
MGHHHHHHSHEVFKNAQPPIRDATDLRENMQNAVVSFKELCGLSSVANLMQCMLAVSPRFLGPDNTPLVVLNLSEQYPTMELQGIVPEVLKKIVTTYDMMIQSLKALIENADAVYEKIVHCQKAAMEFHEHLHSIGTKEGLKERKLQKAVESFTWNITILKGQADLLKYAKNETLENLKQIHFAAVSCGLNKPGTENADVQKPRRSLEVIPEKANDETGE	not soluble
MGHHHHHHSHGATLIRDRLKTEPFEENSFLEQFMIEKLPEACSIGDGKPFVMNLQDLYMAVTTQEVQVGQKHQGAGDPHTSNSASLQGIDSQCVNQPEQLVSSAPTLSAPEKESTALCRDLSCQRSRGRSQGVSSVNLLWPQLLRMDLENSFQASP	not soluble
MGHHHHHHSHGGSRTGPVSLQGDPKQAPWSSSQSNSSRKTLFLSLCPPFPTQPQIHLHFTEHRASSHQGGPFKLQICLSSLYSNLLLHCHYREVHHMSGHRTESAGGHLFLPQDLRWKSPGLGVFAVQSVYELARRHNVSPFYSGPP	not soluble
MGHHHHHHSHGGVGKKEQLSVKKLRVVLFALCCNTEQAAEHFRNPQRRIRRWLRRFQASQGENLEGKYLSFEAEEKLAEWVLTQREQQLPVNEETLFQKATKIGRSLEGGFKISYEWAVRFMLRH	not soluble
MGHHHHHHSHGTRVTLRFQMKMFESADSTATRSGQDLWAEICSCLPNPEQEDGANNAFSDSFVDSCPEGEGQREVADFAVQPAVKPWAPLQDSEVYLASLEKKLRRIKGLNQEVTSKDMLRTLAQAKKECWDRFLQEKLASEFFVDGLDSDESTLEHFKRWLQPDKVAVSTEEVQYLIPPESQVEKPVAEDEPAAGDKPAAAEQ	soluble
MGHHHHHHSHIKPGEEVFTSYIDLLYPTEDRNDRLRDSYFFTCECQECTTKDKDKAKVEIRKLSDPPKAEAIRDMVRYARNVIEEFRRAKHYKSPSELLEICELSQEKMSSVFEDSNVYMLHMMYQAMGVCLYMQDWEGALQYGQKIIKPYSKHYPLYSLNVASMWLKLGRLYMGLEHKAAGEKALKKAIAIMEVAHGKDHPYISEIKQEIESH	not soluble
MGHHHHHHSHLGHSTMYMWAMGDREVFIELAEALTGARLTHSYPIPGGARRDIPADFPDMARRAVRYMRKRLDEYAKIFLNNPVIRSRLEGVGVIPKKAAAEMGIVGPNARGSGIDYDVRLVHPYDAYPEIDFEVPVFEEGDALARTYVRVEEIKQSLRIIEQAVEWLEKHPREPIVDKYLYGKYPPLHKKVLEAEGRAKLLPTVAAMKVPPGRAIGRAETGRGETVYYVESDGGVNPYRVRIVTASARNVIAFKYVLPGHRVMDIPAIYGSLDYFPPEADR	not soluble
MGHHHHHHSHLKHKMMNYMKDFRMIEDSENPEIVISVGGDGTLLQAFHQYSHMLSKVAFVGVHTGHLGFYADWLPHEVEKLIIEINNSEFQVIEYPLLEIIMRYNDNGYETRYLALNEATMKTENGSTLVVDVNLRGKHFERFRGDGLCVSTPSGSTAYNKALGGALIHPSLEAMQITEIASINNRVFRTVGSPLVLPKHHTCLISPVNHDTIRMTIDHVSIKHKNVNSIQYRVANEKVRFARFRPFPFWKR	not soluble
MGHHHHHHSHMAASTASQRPLKGILKDNTSTTSSMVASAEHPRGSVHEQLSKKSQKWDEMNILATYRPADKDYGLMKIDEPSTPYHSTMGDDEDACSDTETTEAMATDSLAKNLAAAEGLEPKYQVQEQESSGEEDSDLSPEEREKKRQFEMRRTLHYNEGLNIKLARQLISKDLHDDDKVEEMLETAHGESMNTEESNQGSTASDQQQNKSRSS	not soluble
